# Test results published in patent US20010034432A1.
# Tests used:
# [1] = target: human CCR5 with a C-terminal glycine residue followed by the C9 nonapeptide tag (expressed from the (human; bovine) (UniProt P51681); assay: immunoprecipitation from 35S-labeled Cf2Th/PACH/synCCR5 lysate in 1% DHPC, SDS-PAGE
# [2] = target: human CCR5 with a C-terminal glycine residue followed by the C9 nonapeptide tag (expressed from the (human; bovine) (UniProt P51681); assay: immunoprecipitation from 35S-labeled Cf2Th/PACH/synCCR5 lysate in 1% Cymal-5, SDS-PAGE
# [3] = target: human CCR5 with a C-terminal glycine residue followed by the C9 nonapeptide tag (expressed from the (human; bovine) (UniProt P51681); assay: immunoprecipitation from 35S-labeled Cf2Th/PACH/synCCR5 lysate in 1% Fos-Choline-14, SDS-PAGE
# [4] = target: cleavage-defective, cytoplasmic tail-truncated gp160 envelope glycoprotein of the YU2 HIV-1 primary (HIV-1 YU2 primary isolate; bovine) (UniProt P35961); assay: FACS binding curves on gp160-expressing 293T cells and gp160-proteoliposomes
# UniProt P35961, sequence (P35961 whole entry, the tested form may be a part): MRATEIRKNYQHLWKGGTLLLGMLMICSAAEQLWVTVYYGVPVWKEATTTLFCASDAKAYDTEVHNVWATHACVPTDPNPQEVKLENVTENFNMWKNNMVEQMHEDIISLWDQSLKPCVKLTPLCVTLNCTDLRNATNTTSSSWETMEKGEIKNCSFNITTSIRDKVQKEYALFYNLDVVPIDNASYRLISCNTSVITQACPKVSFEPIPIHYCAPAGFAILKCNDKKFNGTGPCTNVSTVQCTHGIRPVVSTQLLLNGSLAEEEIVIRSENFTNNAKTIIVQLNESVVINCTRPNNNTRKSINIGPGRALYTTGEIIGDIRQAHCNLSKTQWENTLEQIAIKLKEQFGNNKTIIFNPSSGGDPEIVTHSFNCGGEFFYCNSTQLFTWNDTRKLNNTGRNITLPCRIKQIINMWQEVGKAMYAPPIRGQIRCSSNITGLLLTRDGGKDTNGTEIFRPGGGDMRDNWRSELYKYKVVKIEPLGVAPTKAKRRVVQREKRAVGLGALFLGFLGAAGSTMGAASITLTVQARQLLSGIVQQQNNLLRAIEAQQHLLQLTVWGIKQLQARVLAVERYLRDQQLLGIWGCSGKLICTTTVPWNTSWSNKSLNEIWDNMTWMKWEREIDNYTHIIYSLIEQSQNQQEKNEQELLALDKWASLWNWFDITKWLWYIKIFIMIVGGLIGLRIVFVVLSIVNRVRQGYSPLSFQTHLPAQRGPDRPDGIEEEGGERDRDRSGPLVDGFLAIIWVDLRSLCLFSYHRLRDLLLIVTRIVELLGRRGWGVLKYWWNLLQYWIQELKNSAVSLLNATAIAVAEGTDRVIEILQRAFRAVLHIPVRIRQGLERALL
# UniProt P51681, sequence (P51681 whole entry, the tested form may be a part): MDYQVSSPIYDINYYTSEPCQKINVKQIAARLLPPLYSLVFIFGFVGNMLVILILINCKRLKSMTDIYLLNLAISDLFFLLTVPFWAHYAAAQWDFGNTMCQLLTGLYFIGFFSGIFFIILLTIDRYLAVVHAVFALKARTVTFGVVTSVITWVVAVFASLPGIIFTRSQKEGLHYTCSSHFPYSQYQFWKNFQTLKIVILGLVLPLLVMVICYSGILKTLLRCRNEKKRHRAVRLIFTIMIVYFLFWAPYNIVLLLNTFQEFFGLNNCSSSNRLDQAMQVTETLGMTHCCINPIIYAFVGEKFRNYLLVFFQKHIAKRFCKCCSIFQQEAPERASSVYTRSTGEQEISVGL
Substance,percentage of conformationally intact CCR5 (CCR5 precipitated by 2D7 relative to that precipitated by 1D4) [1] [%],percentage of conformationally intact CCR5 (CCR5 precipitated by 2D7 relative to that precipitated by 1D4) [2] [%],percentage of conformationally intact CCR5 (CCR5 precipitated by 2D7 relative to that precipitated by 1D4) [3] [%],EC50 [4] [µg/mL]
2D7 anti-CCR5 antibody (conformation-dependent),10,98,13,
CD4BS antibody IgGb12,,,,< 1
